Results: the Immune Epitope Database (IEDB)

Assays:
Experiment in all cases: IEDB peptide-MHC binding, purified MHC/competitive/radioactivity; filed as Kd, often an IC50 or EC50 that approximates it; ≥ and ≤ were set here for values at or beyond the usual limits of such assays
HLA-A*03:01 = biological target: HLA-A*03:01
HLA-A*11:01 = biological target: HLA-A*11:01
HLA-A*31:01 = biological target: HLA-A*31:01
HLA-A*33:01 = biological target: HLA-A*33:01
HLA-A*68:01 = biological target: HLA-A*68:01
HLA-A*02:03 = settings: source organism: Dengue virus 3 Martinique/1243/1999
HLA-A*02:06 = settings: source organism: Dengue virus 2 Peru/IQT2913/1996
[1] = source organism: Vaccinia virus WR
[2] = source organism: Mammarenavirus machupoense
[3] = source organism: SARS coronavirus Tor2
[4] = source organism: Mammarenavirus whitewaterense
[5] = source organism: Mammarenavirus juninense
[6] = source organism: Mammarenavirus brazilense
[7] = source organism: Mammarenavirus guanaritoense

Sequence	Kd (HLA-A*03:01; [1])	Kd (HLA-A*11:01; [1])	Kd (HLA-A*31:01; [1])	Kd (HLA-A*33:01; [1])	Kd (HLA-A*68:01; [1])	also measured
AISKLGINY	178 nM	22 nM	2740 nM	8450 nM	1340 nM	–
EWIEFTNFK	–	–	–	–	–	Kd (HLA-A*03:01; [2]): 9580 nM; Kd (HLA-A*11:01; [2]): 3290 nM; Kd (HLA-A*31:01; [2]): 15400 nM; Kd (HLA-A*33:01; [2]): 66.7 nM; Kd (HLA-A*68:01; [2]): 4.52 nM
CFKEASFSK	966 nM	1370 nM	13 nM	11.6 nM	1230 nM	–
SLCFLLTQK	–	–	–	–	–	Kd (HLA-A*03:01; [3]): 25.6 nM; Kd (HLA-A*11:01; [3]): 22.7 nM; Kd (HLA-A*31:01; [3]): 231 nM; Kd (HLA-A*33:01; [3]): 5560 nM; Kd (HLA-A*68:01; [3]): 1200 nM
SLLTNDTTWI	–	–	–	–	–	Kd (HLA-A*03:01; [4]): ≥ 70000 nM; Kd (HLA-A*11:01; [4]): ≥ 69700 nM; Kd (HLA-A*31:01; [4]): 17000 nM; Kd (HLA-A*33:01; [4]): ≥ 70000 nM; Kd (HLA-A*68:01; [4]): ≥ 70100 nM
AFDISVNASK	593 nM	1230 nM	1660 nM	≥ 32300 nM	1040 nM	–
DSPLTLLIK	≥ 78000 nM	6250 nM	≥ 55600 nM	≥ 77700 nM	1320 nM	–
KYIHCFRKPH	–	–	–	–	–	Kd (HLA-A*03:01; [5]): ≥ 70000 nM; Kd (HLA-A*11:01; [5]): ≥ 69700 nM; Kd (HLA-A*31:01; [5]): 12.7 nM; Kd (HLA-A*33:01; [5]): ≥ 46100 nM; Kd (HLA-A*68:01; [5]): ≥ 70100 nM
IAPGIADIR	≥ 78000 nM	≥ 50100 nM	≥ 23900 nM	≥ 29000 nM	29.4 nM	–
FLDKSIHLTK	117 nM	177 nM	104 nM	530 nM	235 nM	–
PIFSDLLKY	≥ 29500 nM	6540 nM	≥ 56900 nM	≥ 77700 nM	≥ 36900 nM	–
TLAVPYNMR	–	–	–	–	–	Kd (HLA-A*03:01; [3]): 995 nM; Kd (HLA-A*11:01; [3]): 3230 nM; Kd (HLA-A*31:01; [3]): 152 nM; Kd (HLA-A*33:01; [3]): 126 nM; Kd (HLA-A*68:01; [3]): 9.36 nM
MVNHSTYYV	–	–	–	–	–	Kd (HLA-A*03:01; [6]): 94.7 nM; Kd (HLA-A*11:01; [6]): 590 nM; Kd (HLA-A*31:01; [6]): 10.3 nM; Kd (HLA-A*33:01; [6]): 810 nM; Kd (HLA-A*68:01; [6]): 94.8 nM
QTTVNTLSER	1520 nM	76.8 nM	21.7 nM	155 nM	5.22 nM	–
LLLPSTDVNK	41.1 nM	37.8 nM	3020 nM	≥ 70000 nM	2920 nM	–
VTISKDNLER	≥ 39000 nM	13.7 nM	118 nM	357 nM	62.6 nM	–
PISELSRLR	≥ 78000 nM	5400 nM	484 nM	919 nM	679 nM	–
LFIDRGSIK	1720 nM	14300 nM	2140 nM	1110 nM	1290 nM	–
GTSTDVVYR	–	–	–	–	–	Kd (HLA-A*03:01; [3]): 79.2 nM; Kd (HLA-A*11:01; [3]): 17.9 nM; Kd (HLA-A*31:01; [3]): 30.3 nM; Kd (HLA-A*33:01; [3]): 481 nM; Kd (HLA-A*68:01; [3]): 16.5 nM
CCNWLDRCRH	–	–	–	–	–	Kd (HLA-A*03:01; [7]): ≥ 70000 nM; Kd (HLA-A*11:01; [7]): ≥ 69700 nM; Kd (HLA-A*31:01; [7]): 1350 nM; Kd (HLA-A*33:01; [7]): 15900 nM; Kd (HLA-A*68:01; [7]): ≥ 70100 nM
ILAGPMPVTA	–	–	–	–	–	Kd (HLA-A*02:03): 125 nM
VSIILANERY	12800 nM	1420 nM	8590 nM	19000 nM	3850 nM	–
NFEALEATK	4210 nM	84.5 nM	6740 nM	1060 nM	704 nM	–
FQRVLIFIL	–	–	–	–	–	Kd (HLA-A*02:06): 1580 nM
SQIQLSLLK	–	–	–	–	–	Kd (HLA-A*03:01; [3]): 892 nM; Kd (HLA-A*11:01; [3]): 29.2 nM; Kd (HLA-A*31:01; [3]): 18000 nM; Kd (HLA-A*33:01; [3]): ≥ 77700 nM; Kd (HLA-A*68:01; [3]): 6270 nM
TLDESFLGR	–	–	–	–	–	Kd (HLA-A*03:01; [3]): 1430 nM; Kd (HLA-A*11:01; [3]): 669 nM; Kd (HLA-A*31:01; [3]): 841 nM; Kd (HLA-A*33:01; [3]): 1120 nM; Kd (HLA-A*68:01; [3]): 947 nM
RLASNAICSA	–	–	–	–	–	Kd (HLA-A*02:03): 135 nM
VTSLAIKNYY	206 nM	21.7 nM	281 nM	420 nM	112 nM	–
TVKTNLYMK	3680 nM	16.2 nM	81.7 nM	6320 nM	104 nM	–
